1 substance from paper PMC13011415 can be followed below.

This assay has as its target 1-acyl-sn-glycerol-3-phosphate acyltransferase alpha (AGPAT1), endogenous in human cells (human (endogenous in Huh7, HAP1, ERMS)) (UniProt Q99943). Kind of assay: immunostaining of cells or tissue.
UniProt Q99943, sequence (Q99943 27-283): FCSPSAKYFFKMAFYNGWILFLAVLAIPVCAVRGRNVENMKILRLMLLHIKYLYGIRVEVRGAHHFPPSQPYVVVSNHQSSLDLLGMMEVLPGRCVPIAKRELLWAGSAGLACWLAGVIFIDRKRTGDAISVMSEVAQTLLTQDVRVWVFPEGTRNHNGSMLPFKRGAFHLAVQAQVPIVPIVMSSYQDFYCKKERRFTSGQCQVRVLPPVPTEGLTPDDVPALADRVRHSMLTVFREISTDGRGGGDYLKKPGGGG

“Chikungunya virus (CHIKV) particles, sucrose gradient-purified, strain IND-06-Guj (complex)” yielded a reduction of CHIKV binding (MIFD) in AGPAT1 KO against WT HAP1 cells of 85%.
